# From patent US20260116991A1 (HAINAN SIMCERE ZAIMING PHARMACEUTICAL, published 2026)
# Positions count from the first letter of the chain named.
# B1: F4.21.16 (antibody, human IgG1, kappa, V domains shown)
# VH: DVQLQESGPGLVKPSQSLSLTCSVTGYSITSGYYWNWIRQFPGNKLEWMGYISYDVTVNYNPSLKNRISITRDTSKNQFFLKLNSVTTEDTATYYCATITSVASMDHWGQGTSVTVSS
# VL: DILMTQTPLSLPVSLGDQASISCRSSQNIVHRNGNTYLEWYLQKPGQSPKLLLYKVSNRFSGVPDRFSGSGSGTDFTLKISRVEAEDLGIYYCFQGSHFPFTFGSGTKLEIKR
# notes: Human-murine chimeric antibody
# B2: F4.26.1 (antibody, human IgG1, kappa, V domains shown)
# VH: QVQLKQSGPGLVQPSQSLSITCTVSGFSLTSYGVHWVRQSPGKGLEWLGVIWSSGNTDYNAVLISRLSIKKDDSKSQVFFKMNSPQVDDSAIYYCGRNGGWLLRGFMDFWGQGTSVTVSS
# VL: DVVMTQTPLSLPVSLGDQASISCRSSQSLLHSNGNTYLHWYLQRSGQSPNLLIYKVSNRFSGVPDRFSGGGSGTDFTLKISRVEAEDLGIYFCSQSTHVPWTFGGGTKLEIKR
# notes: as for B1
# B3: F4.13.7 (antibody, human IgG1, kappa, V domains shown)
# VH: QVQLQQPGAELVKPGASVKLSCKASGYTFTNNWVHWVKQRPGQGLEWTGMIHPDSGSTIYNEKFQSKATLTVDKSSSTAYMQLSSLTSEDSAVYYCARGYYDSSSYYAMDYWGQGTSVTVSS
# VL: NIQMTQTTSSLSASLGDRVTISCSASQGIFNYLNWYQQKPDGTVKLLIYYTSSLHSGVPSRFSGSGSGTDYSLTISNLEPEDIATYYCQQYSKLPWTFGGGTKLEIKR
# notes: as for B1
# B4: F4.18.4 (antibody, human IgG1, kappa, V domains shown)
# VH: QVQLHQSGAEMAKPGASVNLSCKTSGFTFTDYGISWVKQRTRQGLEWIGDIYPRHINIYYNEKFKDKATLTADRSSSTAYMELRSMTSEDSAVYFCARRGTTGRGALDYWGQGTSLTVSS
# VL: DILLTQSPAILSVSPGERVSFSCRASQSIGTSIHWYQQRTNGSPRLLIKYAFESISGIPSRFGGSGSRTDFTLTINSVESEDIADYYCQQTYNWPYTFGGGTKLEIKR
# notes: as for B1
# B5: F3.81.19 (antibody, human IgG1, kappa, V domains shown)
# VH: QVQLQQSGAELVRPGASVKLSCKASGYTFTDYEMHWVKQTPVHGLEWIGTIDPETGNTAYNQKFKGKATLTADKSSSTAYMELRSLTSEDSAVYYCTRPYSLTYWGQGTLVTVSA
# VL: DVLLTQTPLSLPVSLGDQASISCRSSQSFVHSNGDTYLQWYLQKPGQSPKLLIYKVSNRFSGVPDRFSGSGSGTDFTLKISRVEAEDLGVYYCFQGSHVPYTFGSGTKLEIKR
# notes: as for B1
# B6: hAb001H1L1b (antibody, human IgG1, V domains shown)
# VH: EVQLVESGGGLVQPGGSLRLSCAASGFSFNTNAMNWVRQAPGKGLEWVGRIRSKSNNYATYYADSVKDRFTISRDDSKNSLYLQMNSLKTEDTAVYYCVRDGYYVLFAYWGQGTLVTVSS
# VL: DIVMTQTPLSLPVTPGEPASISCRFSQSIVNSNANTYLEWFLQKPGQSPQLLIYKVSNRFSGVPDRFSGSGSGTDFTLKISRVEAEDVGVYYCFQGSHVPFTFGQGTKLEIK
# notes: Humanized F2.169.2
# B7: hAb003LH1L1 (antibody, human IgG1, V domains shown)
# VH: EVQLVQSGAEVKKPGSSVKVSCKASGYTFSDYEMHWVRQAPGQGLEWMGTIDPETGNTAYTQKFMDRVTITADKSTSTAYMELSSLRSEDTAVYYCTRGYSFTYWGQGTLVTVSS
# VL: B6 VL with F25S, S28N, N31H, A34G, E39Q, F41Y, Y54F
# notes: Humanized F2.154.1
# B8: hAb003LH2L1b (antibody, human IgG1, V domains shown)
# VH: B7 VH with T28R, S30T
# VL: B6 VL with F25S, S28N, N31H, A34R, E39Q, F41Y, Y54F
# notes: Humanized F2.154.1
# B9: hAb003LH1L1b (antibody, human IgG1, V domains shown)
# VH: B7 VH
# VL: B6 VL with F25S, S28N, N31H, A34R, E39Q, F41Y, Y54F
# notes: Humanized F2.154.1
# B10: hAb001H2L1b (antibody, human IgG1, V domains shown)
# VH: B6 VH with N79S
# VL: B6 VL
# notes: Humanized F2.169.2
# B11: hAb001H1aL1 (antibody, human IgG1, V domains shown)
# VH: B6 VH with D68G
# VL: B6 VL with A34G
# notes: Humanized F2.169.2
# B12: hAb001H1aL1b (antibody, human IgG1, V domains shown)
# VH: B6 VH with D68G
# VL: B6 VL
# notes: Humanized F2.169.2
# B13: hAb005LH1L1b (antibody, human IgG1, V domains shown)
# VH: EVQLVQSGAEVKKPGASVKVSCKASGYTFTDYEMHWVRQAPGQGLEWMGAIDPETGNTAYIQKFKGRVTMTTDKSTSTAYMELRSLRSDDTAVYYCTRFYSYSHWGQGTTVTVSS
# VL: DIVMTQTPLSLPVTPGEPASISCRSSQSLVHSNRNTYLHWYLQKPGQSPQLLIYKVSNRFSGVPDRFSGSGSGTDFTLKISRVEAEDVGVYYCSQNTHVPPTFGGGTKVEIK
# notes: Humanized F3.54.12
# Biological target: T1, monkey GPC3-His protein (monkey)
# T1 construct: Bought recombinant protein; also called monkey GPC3 protein
# Assay: ELISA, monkey GPC3-His coated;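 also: Plate-coated antigen at 1 µg/mL, antibody binding 2 h at 37 °C, detected with HRP-labeled secondary antibody and TMB, absorbance at 450 nm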
Binder,OD450 at 0.0001 nM,OD450 at 0.001 nM,OD450 at 0.01 nM,OD450 at 0.1 nM,OD450 at 1 nM,OD450 at 10 nM,OD450 at 100 nM
B1,0.04 OD450,0.06 OD450,0.05 OD450,0.1 OD450,1.41 OD450,1.65 OD450,1.08 OD450
B2,0.27 OD450,0.07 OD450,0.18 OD450,0.89 OD450,1.38 OD450,1.88 OD450,1.5 OD450
B3,0.05 OD450,0.08 OD450,0.36 OD450,1.55 OD450,2.34 OD450,2.4 OD450,2.44 OD450
B4,0.14 OD450,0.12 OD450,0.14 OD450,0.85 OD450,0.77 OD450,1.32 OD450,1.9 OD450
B5,0.05 OD450,0.06 OD450,0.16 OD450,0.62 OD450,1.96 OD450,2.55 OD450,2.49 OD450

# Biological target: T2, monkey GPC3 on HEK293T-monkey GPC3 cells (monkey)
# T2 construct: whole, on cells
# Assay: FACS on HEK293T-monkey GPC3 cells
# Description: The desired cells were expanded to a logarithmic growth phase in a T-75 cell culture flask, the medium was removed by pipetting, and the cells were washed twice with a PBS buffer, and digested with trypsin. Then a complete medium was added to stop the digestion, and the cells were blown into a single cell suspension. After counting, the cells were centrifuged, and the cell pellet was resuspended with an FACS buffer (PBS+2% fetal bovine serum) to 2×10⁶ cells/mL. The cell resuspension solution was added to a 96-well FACS reaction plate at 50 μl/well, and a chimeric antibody sample to be tested was added at 50 μl/well for incubation at 4° C. for 1 h. […] After the plate was centrifuged and washed 3 times with a PBS buffer, 100 μl of the resulting solution was assayed and analyzed by FACS (FACS Canto™, purchased from BD Biosciences). Data analysis was performed by software (FlowJo) to obtain the mean fluorescence intensity (MFI) of the cells. Then, analysis was performed by software (GraphPad Prism8), data were fitted, and EC₅₀ values were calculated.
Binder,EC50,Max MFI
B1,3.25 nM,50900 MFI
B2,1.21 nM,50500 MFI
B3,1.1 nM,44100 MFI
B4,0.89 nM,52600 MFI
B5,2.58 nM,106000 MFI

# Biological target: T3, monkey GPC3 on HEK293T-monkey GPC3 cells (monkey)
# T3 construct: whole, on cells
# Assay: FACS on HEK293T-monkey GPC3 cells
Binder,EC50,Max MFI
B6,1.54 nM,32900 MFI
B7,1.56 nM,28200 MFI
B8,0.793 nM,31100 MFI
B9,1.46 nM,28400 MFI
B10,1.41 nM,33100 MFI
B11,1 nM,34000 MFI
B12,0.96 nM,32600 MFI
B13,2.62 nM,24300 MFI

# Biological target: T4, human GPC3-His protein (human, UniProt P51654 25-559)
# T4 construct: also called human GPC3 protein; not shown: His tag
# Assay: SPR, antibody captured on Protein A chip, human GPC3-His analyte;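 also: measured at 25 °C flow cell, human GPC3-His injected at five concentrations up to 200 nM, 240 s association, up to 600 s dissociation, double-referenced, fitted to Langmuir 1:1 model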
Binder,Kd,koff,kon
B1,6.58 nM,0.000267 s⁻¹,40600 M⁻¹ s⁻¹
B2,2.34 nM,0.000461 s⁻¹,197000 M⁻¹ s⁻¹
B3,32.3 nM,0.00156 s⁻¹,48400 M⁻¹ s⁻¹
B4,5.08 nM,0.000443 s⁻¹,87100 M⁻¹ s⁻¹
B5,0.545 nM,0.000231 s⁻¹,424000 M⁻¹ s⁻¹

# Biological target: T1, monkey GPC3-His protein
# Assay: SPR, antibody captured on Protein A chip, monkey GPC3-His analyte;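 also: run at 25 °C with 240 s association and up to 600 s dissociation, double-referenced, kinetics fitted to a 1:1 Langmuir binding model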
# Description: The flow cell was set at 25° C. The sample block was set at 16° C. Both were pretreated with the running buffer. In each cycle, first, the antibody to be tested was captured using the Protein A chip, and then a single concentration of GPC3 antigen protein was injected. […] The association was determined by injecting different concentrations of human GPC3-His in the solution and maintaining for 240 s, wherein the flow rate was 30 μL/min, and the protein was diluted at a 1:1 dilution ratio from 200 nM to obtain 5 concentrations in total. The dissociation phase was monitored for up to 600 s and triggered by switching from the sample solution to the running buffer. The surface was regenerated by washing with 10 mM glycine solution (pH 1.5) at a flow rate of 30 μL/min for 30 s. The difference in bulk refractive index was corrected by subtracting the responses obtained from the goat anti-human Fc surface. Blank injections (double reference) were also subtracted. To calculate the apparent KD and other kinetic parameters, the Langmuir 1:1 model was used.
Binder,Kd,koff,kon
B1,7.81 nM,0.000303 s⁻¹,38800 M⁻¹ s⁻¹
B2,1.38 nM,0.000587 s⁻¹,425000 M⁻¹ s⁻¹
B3,31.4 nM,0.00264 s⁻¹,84000 M⁻¹ s⁻¹
B4,4.65 nM,0.000552 s⁻¹,119000 M⁻¹ s⁻¹
B5,0.415 nM,0.000261 s⁻¹,631000 M⁻¹ s⁻¹

# Biological target: T5, human GPC3-His protein (human, UniProt P51654 25-559, limits assumed)
# T5 construct: also called human GPC3 protein; not shown: His tag
# Assay: SPR, antibody captured on Protein A chip, human GPC3-His injected, 1:1 Langmuir model;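 also: flow cell at 25 °C, antigen injected for 240 s at five twofold dilutions starting at 200 nM, dissociation followed up to 600 s, double-referenced sensorgrams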
Binder,Kd,koff,kon
B6,19.8 nM,0.937 s⁻¹,4.74e+07 M⁻¹ s⁻¹
B7,1.93 nM,0.000453 s⁻¹,234000 M⁻¹ s⁻¹
B8,2.08 nM,0.000501 s⁻¹,240000 M⁻¹ s⁻¹
B9,1.68 nM,0.000415 s⁻¹,246000 M⁻¹ s⁻¹
B10,19.2 nM,0.0101 s⁻¹,526000 M⁻¹ s⁻¹
B11,27 nM,0.0701 s⁻¹,2.6e+06 M⁻¹ s⁻¹
B12,109 nM,0.0167 s⁻¹,153000 M⁻¹ s⁻¹
B13,8.49 nM,0.00231 s⁻¹,272000 M⁻¹ s⁻¹
